Data published in the supplement of paper PMC10567573.
± gives the standard deviation.

Experiment: protein stability index of a GFP-peptide fusion (GPS, HEK-293T) (PSI 1-6); higher = more stable
Conditions: c terminus: a fixed tail appended
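Also: 24-mer peptide tiles fused after GFP, lentivirally expressed, FACS-sorted into six equal bins by GFP/DsRed ratio, decoded by Illumina sequencing, PSI is the read-weighted mean bin number.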

Sequence	protein stability index (treatment: DMSO)	protein stability index (treatment: MLN4924 1 uM, 8 h)
HGRIPDPDDFVPPVPPPSYFATFY [FAM189A2]	2.24 ± 0.25	2.23 ± 0.34
SLTRSNRHRLRWHSFQSSHRPSLN [DLC1]	3.05 ± 0.14	3.41 ± 0.31
LTTCTSNVAASNAKLALFYDWLFF [INTS3]	2.33 ± 0.45	2.66 ± 0.54
AQNACSEHGATLAVIDSEKDMNFL [CD69]	4.62 ± 0.29	4.78 ± 0.27
YKGELFDKTPVLLTDYPVDLDEIA [MYORG]	3.73 ± 0.28	3.75 ± 0.16
ATPGGGTGEAARPHKGLNLHPLLS [PCDHGC5]	3.74 ± 0.17	3.83 ± 0.21
IDFLRVVRNQQSLAVSNMGARSKG [PTPN9]	2.76 ± 0.17	3.46 ± 0.098
EIIRVILKLYEQWKNFDERKEMAT [CCNC]	2.09 ± 0.52	2.38 ± 0.3
SEIEMAKAQRDYELKKAAYDIEVN [FLOT1]	4.89 ± 0.29	5.02 ± 0.17
KMNDSEGMDPERLKAFNMFVRLFV [NOL4L]	2.08 ± 0.11	2.23 ± 0.26
RYDPQTNEWRMVASMSKRRCGVGV [KLHL20]	2.71 ± 0.16	2.75 ± 0.3
LATLEGDDPSLRKTHSSPALSQGH [PSD2]	4.44 ± 0.14	4.6 ± 0.16
DPAPLWGPPPAQGSPGDGGLQDQV [EMID1]	5.22 ± 0.27	5.2 ± 0.26
LQRLDFSVRGYMMSKQRERQLRRR [RETREG3]	3.88 ± 0.14	3.92 ± 0.28
YECNHCGKGFRHSSSLAQHQRKHA [ZNF8]	5.08 ± 0.32	5.12 ± 0.28
VTGHTNIVDFLTHHAQTSKTERIN [FEM1C]	3.45 ± 0.11	3.54 ± 0.19
NLKTLDSKPGVYTSYKPYLNRDEE [DENND6A]	3.6 ± 0.56	3.63 ± 0.38
KYMPHLCQDSSGEVSCQCQLHPPR	2.76 ± 0.58	3.6 ± 0.9
GTKLIFRRRPRQKEAGLSQSHDDL [C2CD2L]	4.03 ± 0.46	4.04 ± 0.3
KVYTHPKWNTQTKARSYSYPHCTG [ZC2HC1C]	2.73 ± 0.36	2.9 ± 0.39
KERLLLSAAVPAGQTYVDAGYEVD [CHIT1]	4.67 ± 0.15	4.67 ± 0.12
VHRDLKPENLLLASKSKGAAVKLA [CAMK2D]	3.58 ± 0.77	3.42 ± 0.065
GFTTATEFHQRRSEIIQITTGSKE [RAD51]	4.22 ± 0.44	4.35 ± 0.47

Sequence	protein stability index (treatment: DMSO)	protein stability index (treatment: MLN4924 1 uM, 8 h)
MLGKYGSSLEFTELLTLVNRKVSQ [CASP6]	2.29 ± 0.23	2.34 ± 0.43
AGRLMRPSVKYLSHPRVQSGCDKE [RNF180]	4.06 ± 0.21	4.11 ± 0.21
LAEMKDDSDSEKQQQIHHIKNLYA [VPS39]	4.16 ± 0.25	4.35 ± 0.44
MAAESLPFSFGTLSSWELEAWYED [DDIT3]	3.21 ± 0.074	3.45 ± 0.23
MGRKKKKQLKPWCWYCNRDFDDEK [ZNF207]	2.39 ± 0.33	3.05 ± 0.34
SDSEANGFAERRIDKFGFIVGSQG [TBC1D10A]	4.14 ± 0.35	4.07 ± 0.34
DITQSIEDDPLLDAQLLPHHSLQA [TMEM192]	4.15 ± 0.22	4.1 ± 0.37
QSFIIPLERYVASLMPLQKSISPW [DENND6A]	2.25 ± 0.04	2.46 ± 0.56
ELLDLKAGGFSIRNQKGEQVFRLA [MYORG]	2.32 ± 0.33	2.24 ± 0.48
EWDAMGGKVQDIKAREKDGKGRTA [FSD1]	5.16 ± 0.21	5.35 ± 0.14
PKKDLEDGEVPQHAGKKGKLSEHL [BRD3]	5.18 ± 0.26	5.3 ± 0.26
RGHQNWVYSCAFSPDSSMLCSVGA [WSB1]	2.07 ± 0.18	2.03 ± 0.23
AVTLRCGHNFCRGCVSRCWEVQVS [TRIM35]	2.62 ± 0.12	2.33 ± 0.43
KGTENLQRAQAEVLQSVRELSRSR [FCHSD1]	4.61 ± 0.27	4.41 ± 0.38
CAIQASLNQGSVFQEYDTDCEVFR [ZNF449]	2.79 ± 0.82	2.67 ± 0.48
TLAVTCQLPIDRGGGEGKAMYIDT [RAD51]	3.14 ± 0.25	3.33 ± 0.32
KEVPVVHTETKTITYESSQVDPGT [EPB41L3]	5.33 ± 0.42	5.2 ± 0.25
RPALAQQAQGARAGGSARRPDTGD [GMCL1]	5.28 ± 0.19	5.33 ± 0.13
CTQLGSLSALKHAVLGLYLLVFLI [SCARA5]	2.16 ± 0.24	2.05 ± 0.23
KVLEALKLKGAEVTYMNMTAYNKG [PLD5]	2.18 ± 0.6	2.42 ± 0.39
KIQDLIDDKDALVFVLIDEVESLT [TRIP13]	2.46 ± 0.36	2.36 ± 0.11
LNRATQSIERSHRIATETDQIGSE [VTI1B]	5.44 ± 0.32	5.34 ± 0.11
TACKPVIRVPSVPPVPCVPSVPCT [KRT36]	3.15 ± 0.28	3.27 ± 0.2

Sequence	protein stability index (treatment: DMSO)	protein stability index (treatment: MLN4924 1 uM, 8 h)
ALKHYVESASSQSGCLRISIQKLS [NECAB1]	2.05 ± 0.12	2.18 ± 0.28
TAVGAILAGGLCVGIYATNSAEAC [ACSBG2]	2.35 ± 0.12	2.84 ± 0.75
GGAEMRTQHWPIRLDGQQEPQPFV [MYORG]	3.86 ± 0.27	3.85 ± 0.13
DKAVEIEELTYIIKQDINSLNKQI [STX5]	2.91 ± 0.14	3.12 ± 0.56
LDPSSGAIHVLGPIDFEESRFYEI [PCDHGC5]	2.27 ± 0.2	2.25 ± 0.26
HGNEVLGRELLLLLVQFVCQEYLA [CPXM2]	3.11 ± 1.1	2.98 ± 1.2
KTKWTKEDGHRTSTSAVPNLFVPL [ADD1]	3.27 ± 0.26	3.22 ± 0.28
VERALQLPREPGDSAQFTKALAII [FEM1A]	3.1 ± 0.051	2.8 ± 0.31
LDSSHSPSSLSSSEGSSSSSSSSS [NFE2L1]	5.51 ± 0.17	5.46 ± 0.15
AAFEEFDTDRDGYISHRELGDCMR [CABP4]	4.25 ± 0.17	4.3 ± 0.36
SDQVKISEEALRADGFGDNPFYHC [SAT2]	4.16 ± 0.28	4.25 ± 0.24
LHHVKTMWYPEIKHFCPRAPVILV [RHOBTB2]	2.65 ± 0.58	2.58 ± 0.87
SCMASLWTAPLVMRTTNLDNRCKL [CDC25A]	2.33 ± 0.084	2.43 ± 0.15
PQSPDFLDITNPKAVLENALRNFA [UFD1]	2.86 ± 0.35	2.55 ± 0.57
DPNFKMEHQNKRSPLHAAAEAGHV [EHMT1]	4.89 ± 0.22	5.04 ± 0.18
LLCLRAVTHREGAPPLPGAESFPG [PLEKHN1]	3.08 ± 0.23	3.11 ± 0.067
RKLLSPVSREENREDKATIKCETS [PPFIA4]	5.11 ± 0.27	5.14 ± 0.26
GKRYCRGKVLGKGGFAKCYEMTDL [PLK2]	2.79 ± 0.35	2.92 ± 0.27
RAALISRRHLQFWKSHLKKVQKPL [RHOBTB1]	2.22 ± 0.16	2.54 ± 0.34
GPTGVTMTSNPITWGQIKKTTQEA [CDK11A]	4.55 ± 0.21	4.51 ± 0.4
GVDHTKMSLHGASGGHERSRDRRR [BTBD10]	5.26 ± 0.27	5.3 ± 0.24
LQLPQLSDLGLLRLCTWLLALSPD [FANCE]	2.89 ± 0.6	2.37 ± 0.3
FIPAKTGKDVATQILEGELFDFDL [RSPH3]	2.7 ± 0.48	2.89 ± 0.56

Sequence	protein stability index (treatment: DMSO)	protein stability index (treatment: MLN4924 1 uM, 8 h)
LPGPAFESYESMELACPAERSGHV [KLHDC2]	4.41 ± 0.17	4.45 ± 0.33
VDNHFNLLTTSPVFPHYIEKPLGR [TRIM43]	3.05 ± 0.4	2.96 ± 0.7
RQRLLADLLHNVSQNIAAETRAED [DFFB]	4.1 ± 0.36	4.09 ± 0.44
KLQVRLATKTEPKKLEKYLQKLSA [ELOA2]	2.31 ± 0.41	2.81 ± 0.42
GPADCSPPHPAPAPQHPAASALRT [DYRK1B]	4.81 ± 0.24	4.92 ± 0.15
HSQFIGYPITLYLEKEREKEISDD [HSP90AB1]	3.82 ± 0.082	3.9 ± 0.26
NILPNTQKVTCFYQPAPYFAAEAR [TENT5D]	2.49 ± 0.32	2.59 ± 0.23
IMDTVGNIWVCYASYVVFRIIYML [SLC19A2]	2.83 ± 0.41	3.12 ± 0.53
MSHHQEELVPKQPQKRKPQEQLLE [SLC2A12]	5.25 ± 0.14	5.34 ± 0.15
GAAESPYGHPAGIDYKTTTILLDG [RAB40B]	4 ± 0.067	3.96 ± 0.25
LWKMKPRRNLEEDDYLHKDTGETS [STEAP1]	4.07 ± 0.3	4.08 ± 0.42
GNPEPVSYYIIQHKPKNSEELYKE [PTPRD]	3.77 ± 0.34	3.47 ± 0.54
DLKPTGEIPKQVKVKKLKNLKTLD [DENND6A]	4.24 ± 0.25	4.24 ± 0.31
LCPSRAELDRWLYHLEKQTALLGG [PLEKHN1]	2.53 ± 0.21	2.62 ± 0.22
ERRRRFNINDRIKELGTLIPKSSD [TFE3]	4.04 ± 0.099	4.09 ± 0.2
ELDNPMQQKWTKPARAGSEVEWTE [C2CD2L]	4.1 ± 0.36	4.25 ± 0.21
WSRLEEFDVFSPKQDLVPGSPDDS [DLC1]	4.45 ± 0.27	4.87 ± 0.38
AIFSAPAFPAAVSSMKKFCRPLLP [PSD2]	2.58 ± 0.12	2.3 ± 0.28
TEDGKLDIWSKSNYQVFQKVTDHA [MED27]	3.67 ± 0.27	3.77 ± 0.42
DHMVRMHLYPADFRFDKPKKSRSP [ZNF511]	3.42 ± 0.38	3.77 ± 0.43
